{"source": "the DeepSol protein solubility set"}
{"experiment": "soluble on expression in E. coli; label from the status in PepcDB or PDB records"}
{"sequence": "MGHHHHHHSHMKTTLKMTALAALSAFVLAGCGSHQMKSEGHANMQLQQQAVLGLNWMQDSGEYKALAYQAYNAAKVAFDHAKVAKGKKKAVVADLDETMLDNSPYAGWQVQNNKPFDGKDWTRWVDARQSRAVPGAVEFNNYVNSHNGKVFYVTNRKDSTEKSGTIDDMKRLGFNGVEESAFYLKKDKSAKAARFAEIEKQGYEIVLYVGDNLDDFGNTVYGKLNADRRAFVDQNQGKFGKTFIMLPNANYGGWEGGLAEGYFKKDTQGQIKARLDAVQAWDGK", "soluble on expression in E. coli": "not soluble"}
{"sequence": "MLRLATPLRSGLLSSAIRRHSACCGGEHKMSEAELKMSKLLTEGIDGCTRVEVHDVSNGCGSMFDVVVEAAGFKGKSKVAQHKQVTSILREQIKDMHGLTIKTKAA", "soluble on expression in E. coli": "not soluble"}
{"sequence": "MTFSKSTTDKPSYTYEELSVKNKAYVWHPFTQMKDYLEEDPVIIERGEGRKLYDVNGNEYWDGVSSIWLNVHGHQVPELDEAIREQLNKIAHSTMLGLANVPSILLAEKIIEVVPEGLKKVFYSDSGSSAVEIAIKMAFQYWQHKGKPKKQRFVTLKEAYHGDTIGAVSVGAIDLFYQVYSSLLFEAIKMPYPYTYRSPYGNDKAEIVKKHLEEMEELLKDKHEEIAAIIVEPLMQGAGGMITMPKGYLRGLRNLCTKYNVLFITDEVATGFGRTGKMFACEHENVTPDILTAGKGLTGGYLPVAITVTTDEIYNAFLGSYEEQKTFFHGHSYTGNPLGCAVAIANLELYEKTNLIEEVARKTEYVATQLEELFACKHVGDIRQCGLMVGIELVKNKETKEAFEWTERVGVQVCKRSRELGMILRPLGNTIVFMPPLASTIDEIDEMLRILYKAISDITEGE", "soluble on expression in E. coli": "not soluble"}
{"sequence": "MRWNICVVGAGKIGQMIAALLKTSSNYSVTVADHDLAALAVLNRMGVATKQVDAKDEAGLAKALGGFDAVISAAPFFLTPIIAKAAKAAGAHYFDLTEDVAATNAVRALAEDSQT", "soluble on expression in E. coli": "soluble"}
{"sequence": "MGSDKIHHHHHHMSYRIVVDPKEVVKPISRHIYGHFTEHLGRCIYGGIYEEGSPLSDERGFRKDVLEAVKRIKVPNLRWPGGNFVSNYHWEDGIGPKDQRPVRFDLAWQQEETNRFGTDEFIEYCREIGAEPYISINMGTGTLDEALHWLEYCNGKGNTYYAQLRRKYGHPEPYNVKFWGIGNEMYGEWQVGHMTADEYARAAKEYTKWMKVFDPTIKAIAVGCDDPIWNLRVLQEAGDVIDFISYHFYTGSDDYYETVSTVYLLKERLIGVKKLIDMVDTARKRGVKIALDEWNVWYRVSDNKLEEPYDLKDGIFACGVLVLLQKMSDIVPLANLAQLVNALGAIHTEKDGLILTPVYKAFELIVNHSGEKLVKTHVESETYNIEGVMFINKMPFSVENAPFLDAAASISEDGKKLFIAVVNYRKEDALKVPIRVEGLGQKKATVYTLTGPDVNARNTMENPNVVDITSETITVDTEFEHTFKPFSCSVIEVELE", "soluble on expression in E. coli": "not soluble"}
{"sequence": "MGSDKIHHHHHHMRRSSVFAGSDGQLDLFVGAGSNIAARDAQDLMAWPFFSLAKTKRVRPIDFRMGEVSILVEATAEHGMATIWDADVLIWVASQIVEARDCGRSTSRLIAATPHEILSFTRRGTGKASYERLKAGLDRLQSTTVATSIRQPHQRRRHRFSWINEWRECLDSSGRALGIEMIVPDWFYEGVLDAALVLTIDRAYFGLTGGLERWLYRIVRKHGGKQKGGWSFDVAHLHLKSGALSPLKRFAFELRDIVRRQPLPGYRLELEHALGRERLSFVCIPEDSFDAAMRRLGYSGVDNP", "soluble on expression in E. coli": "not soluble"}
{"sequence": "ITGTSTVGVGRGVLGDQKNINTTYSTYYYLQDNTRGNGIFTYDAKYRTTLPGSLWADADNQFFASYDAPAVDAHYYAGVTYDYYKNVHNRLSYDGNNAAIRSSVHYSQGYNNAFWNGSQMVYGDGDGQTFIPLSGGIDVVAHELTHAVTDYTAGLIYQNESGAINEAISDIFGTLVEFYANKNPDWEIGEDVYTPGISGDSLRSMSDPAKYGDPDHYSKRYTGTQDNGGVHINSGIINKAAYLISQGGTHYGVSVVGIGRDKLGKIFYRALTQYLTPTSNFSQLRAAAVQSATDLYGSTSQEVASVKQAFDAVGVK", "soluble on expression in E. coli": "soluble"}
{"sequence": "LFPDELIDQLLAQVQGKDAESILGESGLAGQLKKQLAERMLAAELSHHLAAETEQGRAGNHRNGTSAKTVLTPNGELKLDIPRDRQATFEPQLVGKYQRRLPGFDDHVISMYARGMSVREIQGHLLELYGLQVSPDLISTVTDEVLADVEQWQQRPLEAMYPIVYFDALRLKIRDEGTVKNKAVYLALGIRAEGRKEVLGLWIEQTEGAKFWLKVFNELRTCQEFRVLRPVK", "soluble on expression in E. coli": "not soluble"}
{"sequence": "MEKILIFGHQNPDTDTICSAIAYADLKNKLGFNAEPVRLGQVNGETQYALDYFKQESPRLVETAANEVNGVILVDHNERQQSIKDIEEVQVLEVIDHHRIANFETAEPLYYRAEPVGCTATILNKMYKENNVKIEKEIAGLMLSAIISDSLLFKSPTCTDQDVAAAKELAEIAGVDAEEYGLNMLKAGADLSKKTVEELISLDAKEFTLGSKKVEIAQVNTVDIEDVKKRQAELEAVISKVVAEKNLDLFLLVITDILENDSLALAIGNEAAKVEKAFNVTLENNTALLKGVVSRKKQVVPVLTDAMAE", "soluble on expression in E. coli": "soluble"}
{"sequence": "MSRQACKKSFSCGSQGFSGHSAVVSGSSRSSCVARSGAASGGACGFRSGAGSLGSHSLYSLGGSKSISISVAAGGSRAGGFSGGRSSCGSGFGSGYGGSLGGSRGMGAGFGGPSGFGGAGGFGRPGSFGPGSCPGGIQEVTINQSLLQPLNVEIDPQIGQVKAQEREQIKTLNNKFASFIDKVRFLEQQNKVLETKWELLQQQTIRSGSGPQNLEPFFESCISCLRKQLDSLLGAKGSLEGELKSMQDLVEDFKKKYEEEINRRTAAENEFVGLKKDVDGAFMNKVELQAKVDSLTDEINFLRTLYDMELSQIQSHVSDTSVVLSMDNNRCLDLDSIIAEVKAQYEDIAQKSKAEAEALYQTKLGELQTTAGRHGDDLRSTKSEIMDLNRMIQRLRAEIENVKKQNTNMQTSIAEAEQRGERALKDADTKFQYLQVALQKAKEDMARLLKEYQELMNVKLALDVEIATYRKLLEGEECRLSGEFQNAVSISVVSNVTSTSSSGSFRGTGGSNYGGDSSGRSGGSSSSSSRGSSSRGSSGSRLGSGGSISVSQQRMGFNSGGSQTSVGSSYKSGRGGSSSVQFSQTTSSSQQRSK", "soluble on expression in E. coli": "soluble"}
{"sequence": "MSSASELMRCSGRWTLFRRTLPRLRKCVGVGETSGREKPPNSPNSSTLPMMTKTELSPPQIHINFIFFLPKNVFILKNCSL", "soluble on expression in E. coli": "not soluble"}
{"sequence": "LAIPEKRLSNNIILTKLKIALNLQAEQIISLLESVDFRISKPELSAFSRKVDHQHYRECKDQVLRNLLHAIDKTYHV", "soluble on expression in E. coli": "not soluble"}
{"sequence": "MGSDKIHHHHHHLQFAVLSSGSAGNCSLLMTDQHKILMDAGLSGKKTKELLAKVGVAIEDLDMVFLSHDHGDHSGGMGVLMRRYPQLNAFSNTVTWKYLEETGKIGCLPKDQINVIEPGQTKCYGDLEVTAFATSHDAAQPQYYVFSSGGKRLACLTDTGYVSEEVEYEIQDADAYLLEFNYDDLMLRSGPYPWSLQQRVRSDHGHLSNEQAAETLARVISSKTKHVFMAHRSQQNNLNYLARDVAEEVLAARDADVASDLELHDTEPMTPSSLINL", "soluble on expression in E. coli": "not soluble"}
{"sequence": "MGSDKIHHHHHHMKQFQIVGIGNALVDVLSHCDDAFLAENGIAKGIMQLIDMGRAVDLYGRIGPAQEISGGSAANTIAGIAQLGGRTAYVGKVCDDQLGAIFAHDLRAQGAVYETPMAPKGGAQETGRCIILVSPDGERSMNTCLGWSEFLTPDDIDEAQMASTEWIYLEGYRFDGPESHAAFAKAIAACRGAGGRVSLTLSDPFCVERHRDAFRRMIREDVDLLFANRAEILSMYRTEDFGAALKAAAAEVAIVACTESEKGAHILADGQHWHVPALPTQIVDATGAGDLFAGAFLWGLTHGHGYETAGRMGCIAASEVISHLGARPEADLRALFRAQGVL", "soluble on expression in E. coli": "not soluble"}
{"sequence": "MAHHHHHHSLKIRQARLEDLDRIVELEFENFSVEEAIPPSVFEAHLREIQTSFLVAEKEGRIMGYIEGPVGLHRHLQDQSFTEEIKDYSHEPGGYISVTCLSIAKEAQGLGLGQKLLTALKEVALEDERDGINLTCHDYLIAYYEKHGFVNEGQSQSTFAGETWYDMVWEMKKEG", "soluble on expression in E. coli": "not soluble"}
{"sequence": "AIAMQISDTYNQKHSLFNAMNRFIGAVNNMDQTVMVPSLLRDVPLDMEVKDEVHNTIGATNYFSRTDMHGYYILLKSIRNDIEWGVVQGEDRKKDKLSNMEISRLEDGDGEEDLEKQFHYHLSGLHTVLNKLTRKAHILTNRYKEEIGFGSWGH", "soluble on expression in E. coli": "soluble"}
{"sequence": "GHMDIAEPAELDADELKRVLEALLLVIDTPVTADALAAATEQPVYRVAAKLQLMADELTGRDSGIDLRHTSEGWRMYTRARFAPYVEKLLLDGARTKLTRAALETLAVVAYRQPVTRARVSAVRGVNVDAVMRTLLARGLITEVGTDADTGAVTFATTELFLERLGLTSLSELPDIAPLLPDVDTIDDLSESLDSEPRFIKLTGELASEQTLSFDVDRD", "soluble on expression in E. coli": "soluble"}
{"sequence": "MTMDLRTGLAALALAAGLALPAAPALAEMSEITIARQPSIGHLPLMIMQERRLIETMAEAEGLGEVKVNYATFAGGSNMNDALLSNTIQFAAGGVPPLILLWSKTAGTSNEVKGVAAMNSMPLLMNVNREDIRSIEDFKPGDKIALPSVKVSVQAMVLQMAAAKIWGDENYGKLDPLTVSMSHPDGLAALLARQEVTAHFTASPAQDMALREPGVHTVLNSFDVMGGPVTFNVVWTTKAFHDDNPKLFDIFRRALAQAVEVVNEDPAEAVQVYLRQAGNATDPELLASILADPQVDYTVEPSGIDKYLDFMRRIGTVKDNGQPWEAMFFE", "soluble on expression in E. coli": "not soluble"}
{"sequence": "MVVFGTTFFNFDSFIGKTDSIEIIGKSVFPYCYHNILPLLNDSGRYSLGDARRPLHETAVLVEDVVHTQLINLLQQAAEVSQLRGARVITPEDLLFLMRKDKKKLRRLLKYMFIRDYKSKIVKGIDEDDLLEDKLSGSNNANKRQKIAQDFLNSIDQTGELLAMFEDDEIDEVKQERMERAERQTRIMDSAQYAEFCESRQLSFSKKASKFRDWLDCSSMEIKPNVVAMEILAYLAYETVAQLVDLALLVRQDMVTKAGDPFSHAISATFIQYHNSAESTAACGVEAHSDAIQPCHIREAIRRYSHRIGPLSPFTNAYRRNGMAFLAC", "soluble on expression in E. coli": "not soluble"}
{"sequence": "GPGSMAKYFVPDTTFGLDAECAVCCCLWTDPVEISECQHIFCRGCVEGLETCPVCCGPVTRLDTPGKFILRLLQRTQGSCSACLWKGTYSDFKEKHFECLEADEVQSSDEGKILATTECVAMREYYLEGSGAKPEGSAPSPAAVDSFLVHPVAAVNAGSPHAQPFADATNNGAPVADAHLTCEQRAQWRQSLTSTARDYGMSDREYRELMECFPDFAVPVPDRGMAPELRWRGACRLLRFLNYPNHPDDVKNLFEMADRDALTESVPFHVLCLWLMLNRRNPAQWYHMTAEPYEQFLKVAQLLDVEATGLFQLDQCRILAEQYFERDVCDAEWLRIKRLLRSKDAEIRQSFLSSANRRRVNLDESFALPSAKLPLHDVLCAFTRHVDALKKEQQQQSEAERVQADYVRRIKRIVDFYEPDAVNQLDATLQKFTGEEESLLMTLTAMYGPEPP", "soluble on expression in E. coli": "soluble"}
{"sequence": "MSLAQISSLFVTRLYHAPLSDHGPAIDAEEMESSCYAIAEDDEAGQGWCEENGYPGYTSYASLTDLPWRFPIFADLVKSLDAHVAAFAEDLEFDLDGRALELEDLWINILPEGGSHASHIHPHSVISGTTYVSMPGGTSALKLEDPRHAMMMAAPARRKTARDELRQFIYVTPAVGDVLLWESWLRHEVPMNMSEDDRISVSFNYRWAEGHHHHHH", "soluble on expression in E. coli": "soluble"}
{"sequence": "MNTLEKIQKNLENFSKSERKVAEVIMASPQTAIHSSIATLAKMADVSEPTVNRFCRRLDTKGFPDFKLHLAQSLANGTPYVNRNVEEDDGPDAYTHKIFESTMACLDVAKNSLDPMQVNRAVDLLTQAKRISFFGLGASSSVARDAQNKFIRFNIPITCFEDIVMQRMSCINCSDNDVIVLISHTGRTKSQVEIANLARENGATVIAITAKDSPLEKASSLAITLDIPEDTDVYMPMASRVVQMTVIDVLATGFTLRRGTGFRENLKRVKDALKDSRYDKLSQY", "soluble on expression in E. coli": "not soluble"}
